What was measured:
[1] = biological target: SARS-CoV-2 spike D614 (pseudovirus) (SARS-CoV-2, UniProt P0DTC2 14-1273); experiment: cell-based or functional assay
[2] = biological target: SARS-CoV-2 spike 'D614 or G614' (pseudovirus) (SARS-CoV-2, UniProt P0DTC2 14-1273); experiment: cell-based or functional assay
MERS-CoV RBD = biological target: T1, MERS-CoV RBD (MERS-CoV, UniProt K9N5Q8 367-606); experiment: BLI (Octet)
T1 sequence: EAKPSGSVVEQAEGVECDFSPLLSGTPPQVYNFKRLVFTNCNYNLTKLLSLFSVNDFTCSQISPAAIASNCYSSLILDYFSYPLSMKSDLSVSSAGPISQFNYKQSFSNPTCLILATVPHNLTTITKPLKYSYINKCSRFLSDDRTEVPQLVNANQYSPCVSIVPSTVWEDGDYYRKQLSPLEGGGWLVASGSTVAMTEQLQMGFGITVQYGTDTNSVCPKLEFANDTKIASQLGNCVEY

HCoV-HKU1 S1 = biological target: T2, HCoV-HKU1 S1 (HCoV-HKU1, UniProt Q5MQD0 13-760); experiment: BLI (Octet)
T2 construct: domain: S1
T2 sequence: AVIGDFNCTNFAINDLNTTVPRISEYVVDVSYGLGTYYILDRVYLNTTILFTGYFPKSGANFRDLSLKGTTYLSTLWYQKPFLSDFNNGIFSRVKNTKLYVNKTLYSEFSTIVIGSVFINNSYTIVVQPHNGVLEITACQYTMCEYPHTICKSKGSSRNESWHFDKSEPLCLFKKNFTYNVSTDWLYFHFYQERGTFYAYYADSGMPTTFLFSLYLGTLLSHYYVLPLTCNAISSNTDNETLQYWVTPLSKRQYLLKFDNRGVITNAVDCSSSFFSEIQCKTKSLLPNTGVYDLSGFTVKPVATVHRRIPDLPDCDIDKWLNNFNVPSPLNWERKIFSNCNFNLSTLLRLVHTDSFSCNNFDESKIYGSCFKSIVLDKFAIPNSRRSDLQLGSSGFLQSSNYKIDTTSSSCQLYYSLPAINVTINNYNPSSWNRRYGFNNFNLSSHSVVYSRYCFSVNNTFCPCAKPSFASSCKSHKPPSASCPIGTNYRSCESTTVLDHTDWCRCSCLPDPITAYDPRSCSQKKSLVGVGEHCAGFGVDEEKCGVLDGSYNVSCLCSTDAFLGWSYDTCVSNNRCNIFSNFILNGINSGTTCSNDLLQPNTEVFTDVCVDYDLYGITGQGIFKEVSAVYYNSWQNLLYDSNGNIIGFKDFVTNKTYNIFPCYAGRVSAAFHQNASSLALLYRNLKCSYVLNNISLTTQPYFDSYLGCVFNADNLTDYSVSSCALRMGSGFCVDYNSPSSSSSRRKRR

SARS-CoV S1 = SARS-CoV S1 (SARS-CoV, UniProt P59594 14-667); experiment: BLI (Octet)

B1: No. 139 항체 (Full IgG) (antibody, V domains shown)
VH: QITLKESGPTLVKPTQTLTLTCSFSGFSLSTSGVGVGWIRQPPGKALEWLALIDWDDNKYHTTSLKTRLTISKDTSKNQVVLTMTNMDPVDTATYYCARIPGFLRYRNRYYYYGMDVWGQGTTVTVSS
VL: ELVLTQPPSVSAAPGQKVTISCSGSSSNIGNNYVSWYQQLPGTAPKLLIYDNNKRPSGIPDRFSGSKSGTSATLGITGLQTGDEADYYCGTWDSSLSAGVFGGGTELTVL
IC50, pseudovirus neutralisation [1]: 0.378 ng/mL
IC50, pseudovirus neutralisation [2]: 0.35 ng/mL
binding result (MERS-CoV RBD): no binding
binding result (HCoV-HKU1 S1): no binding
binding result (SARS-CoV S1): no binding

Reference: KR20220012810A (dated 2022)
